Among the data in the Immune Epitope Database (IEDB) are Kd and IC50 values, retold here.

Some results are limits rather than exact numbers.

Assay [1] deals with HLA-B*27:05. Briefly: IEDB peptide-MHC binding, purified MHC/direct/fluorescence; filed as Kd, often an IC50 or EC50 that approximates it; ≥ and ≤ were set here for values at or beyond the usual limits of such assays. The following applies: source organism: Giardia lamblia ATCC 50803.
Assay [2] addresses HLA-A*68:02. The assay is described as above. The following applies: source organism: Giardia lamblia ATCC 50803.
For assay [3], the target named is HLA-B*39:01. The description is as above. Conditions: source organism: Giardia lamblia ATCC 50803.
In assay [4] the target is HLA-A*11:01. The assay is described as above. Conditions: source organism: Giardia lamblia ATCC 50803.
Assay [5] has as its target HLA-A*26:03. The description is as above. Conditions: source organism: Giardia lamblia ATCC 50803.
Assay [6] deals with HLA-A*02:01. The description is as above. Conditions: source organism: Giardia lamblia ATCC 50803.
Assay [7] addresses HLA-B*58:01. The description is as above. The following applies: source organism: Giardia lamblia ATCC 50803.
Assay [8] deals with HLA-B*15:17. The assay is described as above. Conditions: source organism: Giardia lamblia ATCC 50803.
In assay [9] the target is HLA-A*01:01. Described as above. Conditions: source organism: Giardia lamblia ATCC 50803.
For assay [10], the target named is HLA-B*48:01. The assay is described as above. The following applies: source organism: Giardia lamblia ATCC 50803.
The target in assay [11] is HLA-B*08:01. The description is as above. The following applies: source organism: Giardia lamblia ATCC 50803.
Assay [12] concerns the target HLA-B*08:02. The assay is described as above. Conditions: source organism: Giardia lamblia ATCC 50803.
In assay [13] the target is HLA-A*69:01. Described as above. The following applies: source organism: Giardia lamblia ATCC 50803.
Assay [14] addresses HLA-B*18:01. The assay is described as above. The following applies: source organism: Giardia lamblia ATCC 50803.
The target of assay [15] is HLA-B*08:03. Described as above. Conditions: source organism: Giardia lamblia ATCC 50803.
The target of assay [16] is HLA-B*57:01. Described as above. The following applies: source organism: Giardia lamblia ATCC 50803.
In assay [17] the target is HLA-A*31:01. Described as above. Conditions: source organism: Giardia lamblia ATCC 50803.
In assay [18] the target is HLA-B*40:01. The description is as above. Conditions: source organism: Giardia lamblia ATCC 50803.
For assay [19], the target named is HLA-A*26:02. The assay is described as above. The following applies: source organism: Giardia lamblia ATCC 50803.
Assay [20] concerns the target HLA-B*07:02. Described as above. Conditions: source organism: Giardia lamblia ATCC 50803.
Assay [21] deals with HLA-B*39:01. The assay is described as follows: IEDB peptide-MHC binding, purified MHC/competitive/fluorescence; filed as Kd, often an IC50 or EC50 that approximates it; ≥ and ≤ were set here for values at or beyond the usual limits of such assays. The following applies: source organism: Vibrio vulnificus YJ016.
Assay [22] addresses HLA-A*02:01. The description is as above. Conditions: source organism: Vibrio vulnificus YJ016.
Assay [23] addresses HLA-A*29:02. The assay is described as above. The following applies: source organism: Vibrio vulnificus YJ016.
Assay [24] has as its target HLA-B*15:01. The assay is described as above. Conditions: source organism: Vibrio vulnificus YJ016.
The target of assay [25] is HLA-B*51:01. The assay is described as above. Conditions: source organism: Vibrio vulnificus YJ016.
Assay [26] has as its target HLA-B*46:01. The assay is described as above. Conditions: source organism: Vibrio vulnificus YJ016.
Assay [27] addresses HLA-A*24:03. The assay is described as above. Conditions: source organism: Vibrio vulnificus YJ016.
For assay [28], the target named is HLA-A*23:01. The assay is described as above. The following applies: source organism: Vibrio vulnificus YJ016.
The target in assay [29] is HLA-A*03:01. Described as above. The following applies: source organism: Vibrio vulnificus YJ016.
In assay [30] the target is HLA-B*27:03. The description is as above. The following applies: source organism: Vibrio vulnificus YJ016.
Assay [31] addresses HLA-A*26:01. The description is as above. The following applies: source organism: Vibrio vulnificus YJ016.
The target of assay [32] is HLA-B*18:01. The assay is described as above. The following applies: source organism: Vibrio vulnificus YJ016.
In assay [33] the target is HLA-A*02:19. The description is as above. The following applies: source organism: Vibrio vulnificus YJ016.
For assay [34], the target named is HLA-A*02:12. The assay is described as above. Conditions: source organism: Vibrio vulnificus YJ016.
For assay [35], the target named is HLA-B*57:01. The assay is described as above. The following applies: source organism: Vibrio vulnificus YJ016.
Assay [36] addresses HLA-A*02:03. Described as above. The following applies: source organism: Vibrio vulnificus YJ016.
Assay [37] addresses HLA-B*45:06. The assay is described as above. Conditions: source organism: Homo sapiens.
In assay [38] the target is HLA-B*83:01. The description is as above. The following applies: source organism: Homo sapiens.
The target of assay [39] is HLA-B*15:42. The assay is described as above. Conditions: source organism: Homo sapiens.
The target in assay [40] is HLA-A*68:23. The assay is described as above. Conditions: source organism: Homo sapiens.
Assay [41] deals with HLA-B*53:01. Briefly: IEDB peptide-MHC binding, purified MHC/competitive/fluorescence; ≥ and ≤ were set here for values at or beyond the usual limits of such assays. Conditions: source organism: Human herpesvirus 4 type 2.

For the sequence RENQVAVVR, the Kd in assay [1], in assay [2], in [3], in [4], in assay [5] and in assay [6] was not below 20 µM each time. The Kd in assay [7], in assay [8], in assay [9], in assay [10], in assay [11] and in [12] was not below 20 µM in each case. Besides, the Kd in [13], in assay [14], in [15], in assay [16], in [17] and in [18] was not below 20 µM each time. Also, the dissociation constant (Kd) in [19] and in [20] was not below 20 µM throughout.
On to LTDEQKNAV, for which the Kd in [21], in assay [22], in assay [23], in [24], in assay [25] and in assay [26] was not below 20 µM in each case. Also, the Kd in [27], in [28], in assay [29], in assay [30], in assay [31] and in assay [32] was not below 20 µM each time. In addition, the Kd was not below 20 µM in assay [33], 856 nM in assay [34], not below 20 µM in assay [35] and not below 20 µM in assay [36].
In the case of KGPPAALTL, the Kd was not below 5 µM in assay [37], 5.27 µM in assay [38], not below 5 µM in [39] and 946 nM in assay [40].
TAYCPLQHW yielded an IC50 in assay [41] of 32.6 nM.

As a reminder, the Kd is the equilibrium constant for the complex coming apart. A lower Kd goes with a tighter complex. A word on the IC50: it is the midpoint of a concentration-inhibition curve.
